The results in this text go back to patent US7361341B2, “Methods of treating cancer using antibodies that immunospecifically bind to trail receptors” (Human Genome Sciences, Inc., priority 2001, dated 2008).

Data set [1] deals with human primary hepatocytes. The experiment in a line: Caspase activation in human primary hepatocytes. The data set is classed as cell-based. Particulars: 6 hrs following treatment; T1014G03 62.5-1000 ng/ml, TRAIL 15.6-1000 ng/mL. How it is done:
(§1) The effect of T1014G03 (lot AB22125-M2) in human primary hepatocytes was determined by measuring either caspase activation or cell viability. Human hepatocytes were treated with 15.6, 62.5, 250 or 1000 ng/mL of TRAIL (amino acid residues 114-281, Biomol Research Laboratories Inc, Plymouth Meeting, Pa.), 62.5, 125, 250, or 1000 ng/ml of isotype control mAb (hlgG1,CAT002) or 62.5, 125, 250, or 1000 ng/ml T1014G03. Caspase activation was determined at 6 hrs following treatment, while viability was determined at 24 hrs following treatment.
(§2) Caspase activity was measured using a fluorimetric assay utilizing the caspase substrate Rhodamine conjugated DEVD, (e.g., Homogeneous Fluorimetric Caspases Assay available from Roche Molecular Biochemicals (Indianapolis, Ind.)). Cell viability was determined using an ALAMAR Blue™ (Biosource International, Camarillo, Calif.) assay. […] In contrast to TRAIL, T1014G03 treatment was found not to effect either caspase or cell viability in human hepatocytes.

In data set [2] the test system is human primary hepatocytes. The experiment in a line: Cell viability of human primary hepatocytes (ALAMAR Blue). The format is cell-based. Particulars: 24 hrs following treatment; T1014G03 62.5-1000 ng/ml, TRAIL 15.6-1000 ng/mL. Here is the method:
as §1, §2

“TRAIL: TRAIL (amino acid residues 114-281, Biomol Research Laboratories Inc)”: the caspase activity entry in data set [1] is on record as “induced caspase activity at the highest concentration tested”. In addition, the cell viability entry in data set [2] is “reduced cell viability at all concentrations tested”.
